Assay results from US20250206819A1 (MorphoSys, published 2025).
Values joined by “and” are separate entries in the source; they are usually repeats but may differ in a detail not shown here. Equal values may be shown once.

Experiments:
[1] = target: T1, human CD3 expressed on cells (Jurkat cells, human T cells) (human, UniProt P07766 22-207); experiment: cell-based or functional assay
[2] = target: T1, human CD3 expressed on cells (Jurkat …); experiment: cell-based or functional assay; remark: listed apart in the source
[3] = target: Mature human CD3e(22-118)_FLAG-chLys_Avi (human); experiment: BLI (Octet), bispecific captured, antigen as analyte; heterogenous binding
Chain of Mature human CD3e(22-118)_FLAG-chLys_Avi (human) (chain, as listed by the source limits assumed): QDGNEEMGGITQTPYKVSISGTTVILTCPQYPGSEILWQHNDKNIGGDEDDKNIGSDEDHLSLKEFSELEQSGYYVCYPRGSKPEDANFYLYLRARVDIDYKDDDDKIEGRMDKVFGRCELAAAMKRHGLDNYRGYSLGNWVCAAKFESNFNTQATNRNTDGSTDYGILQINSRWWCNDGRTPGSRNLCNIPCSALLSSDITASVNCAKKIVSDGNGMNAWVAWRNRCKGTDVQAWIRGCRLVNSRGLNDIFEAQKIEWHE
Description: (§1) Affinity determination by determining kinetic rate constants was performed on an Octet HTX (FortéBIO, Sartorius AG) instrument. […] The association phase was recorded for 180 s, followed by a dissociation phase of 300 s. After each cycle, the biosensors were regenerated two times with 10 mM Glycine HCl pH 1.7 to remove bound ligand/antibody complex, while maintaining the integrity of the capture surface. Between regeneration steps, biosensors were washed with assay buffer for 20 s. Sensorgrams were evaluated with Data Analysis Software v 10 (Octet/fortébio). All sensorgrams were fitted to a 1:1 binding model to determine kₒₙ and koff rate constants, which were used to calculate the KD value. For kinetic profiles deviating from the expected 1:1 binding, the sensorgrams were evaluated using a best approximation to the monovalent kinetics, and results marked with comment “heterogeneous binding”.

[4] = target: T1, human CD3 expressed on cells (Jurkat …); experiment: flow cytometry on Jurkat cells
Description: Target cells were mixed with the bispecific antibodies serially diluted (final concentration: 0.1 nM-200 nM) in D-PBS (Gibco) containing 3% fetal bovine serum (Sigma, #F7524) and incubated for 1 h on ice. Cells were washed 2 times in D-PBS (Gibco) containing 3% fetal bovine serum (Sigma, #F7524) and 0.02% […]. […] Antibody staining was measured using FACS Array (Beckton Dickinson) or IntelliCyt iQue flow cytometer and analyzed in FlowJo or ForeCyt (IntelliCyt) softwares, respectively. EC₅₀ values were calculated using 4-parameter non-linear regression analysis in Prism software (GraphPad Software Inc.).

[5] = target: Mature human CD3e(22-118)_FLAG-chLys_Avi (human); experiment: BLI (Octet), bispecific captured, antigen as analyte
Description: as §1

[6] = target: T2, Mature cynomolgus CD3e(22-49)_Fc2(K105-K330) (cynomolgus); experiment: ELISA, antigen coated on plate
T2 construct: also called cyCD3e(22-49)-Fc2(K105-K330); recombinant cynomolgus CD3e (22-49)-Fc2(K105-K330)
Description: (§2) Bispecific Fab₂-Fc-scFv antibodies according Example 1.2 were tested for their ability to bind to recombinant human and cynomolgus CD3epsilon antigen in ELISA. 5 nM of recombinant human CD3e (22-49)-Fc2 (K105-K330) (SEQ ID NO: 41) or 1 nM of recombinant cynomolgus CD3e (22-49)-Fc2(K105-K330) (SEQ ID NO: 42) were coated on Maxisorp plates (Nunc, #460518). Coated plates were blocked with 5% skim milk in PBS. Antibodies were serially diluted in PBS containing 0.5% skim milk and 0.5% Tween-20. […] EC₅₀ values were calculated using 4-parameter non-linear regression analysis in Prism software (GraphPad Software Inc.)

[7] = target: T3, Mature human CD3e(22-49)_Fc2(K105-K330) (human); experiment: ELISA, antigen coated on plate
T3 construct: also called hCD3e(22-49)-Fc2(K105-K330); recombinant human CD3e (22-49)-Fc2 (K105-K330)
Description: as §2

[8] = target: T1, human CD3 expressed on cells (Jurkat …); experiment: cell-based or functional assay; remark: listed apart in the source
[9] = target: Mature human CD3e(22-118)_FLAG-chLys_Avi (human); experiment: BLI (Octet), bispecific captured, antigen as analyte; remark: listed apart in the source
Description: Sensorgrams were evaluated with Data Analysis Software v 10 (Octet/fortébio). All sensorgrams were fitted to a 1:1 binding model to determine kₒₙ and koff rate constants, which were used to calculate the KD value. For kinetic profiles deviating from the expected 1:1 binding, the sensorgrams were evaluated using a best approximation to the monovalent kinetics, and results marked with comment “heterogeneous binding”.

[10] = target: T1, human CD3 expressed on cells (Jurkat …); experiment: flow cytometry on human T cells, 167 nM antibody

T1 sequence (P07766 22-207): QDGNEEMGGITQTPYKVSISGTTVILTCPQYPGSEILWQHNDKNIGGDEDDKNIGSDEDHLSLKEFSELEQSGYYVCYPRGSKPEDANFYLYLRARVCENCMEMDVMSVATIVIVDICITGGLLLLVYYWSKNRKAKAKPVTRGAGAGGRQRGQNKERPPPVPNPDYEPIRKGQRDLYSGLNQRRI

B1: BissIg_18_opt_VH#1 (bispecific antibody, V domains shown)
VH 1: not shown
VL 1: not shown
VH 2: EVQLVESGGGLVQPGGSLRLSCAASGFSFGSHYMSWVRQAPGKGLEWVANINQIGYSSYYVESVKGRFTISRDNAKNSLYLQMNSLRAEDTAVYYCARGYSAEFAHRSGLDVWGQGTLVTVSS
VL 2: QSVLTQPPSASGTPGQRVTISCSGSSSNIGSNYVYWYQQLPGTAPKLLIYRNNQRPSGVPDRFSGSKSGTSASLAISGLRSEDEADYYCAAWDHHRSGAVFGGGTKLTVLGQ
notes: 1+1 IgG1 made by Fab-arm exchange; AEASS Fc; F405L in the CD3 half, K409R in the HER2 half
[1]
  T cell mediated killing MCF-7 [T cells] IC50 [pM]: 210 pM
  T cell mediated killing SKBR3 [PBMCs] IC50 [pM]: 15 pM
[2]
  Reporter gene assay MCF-7 EC50: 0.33 nM
  Reporter gene assay SKOV3 EC50: 0.18 nM
[3]
  Kd: 17 nM
[4]
  EC50: 9 nM
[5]
  koff: 0.0044 s⁻¹
  kon: 250000 M⁻¹ s⁻¹

B2: BissIg_18_opt_VL (bispecific antibody, V domains shown)
VH 1: not shown
VL 1: not shown
VH 2: EVQLVESGGGLVQPGGSLRLSCAASGFTFSSYWMSWVRQAPGKGLEWVANIKQDGSEKYYVDSVKGRFTISRDNAKNSLYLQMNSLRAEDTAVYYCARGYSAEFAHRSGLDVWGQGTLVTVSS
VL 2: QSVLTQPPSASGTPGQRVTISCSGSSSNIGSNYVYWYQQLPGTAPKLLIYRNNQRPSGVPDRFSGSKSGTSASLAISGLRSEDEADYYCAGWSRSLHGAVFGGGTKLTVLGQ
notes: as for B1
[3]
  Kd: 28 nM
[5]
  koff: 0.0041 s⁻¹
  kon: 150000 M⁻¹ s⁻¹

B3: Bisslg_08_#GP (bispecific antibody)
VH: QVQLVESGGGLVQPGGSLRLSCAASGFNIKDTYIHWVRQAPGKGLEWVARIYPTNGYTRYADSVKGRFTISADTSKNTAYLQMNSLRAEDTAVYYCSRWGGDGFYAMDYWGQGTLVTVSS
VL: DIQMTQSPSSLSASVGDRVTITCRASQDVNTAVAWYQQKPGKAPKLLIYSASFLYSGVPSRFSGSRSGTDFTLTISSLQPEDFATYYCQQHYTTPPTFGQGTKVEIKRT
scFv: QSVLTQPPSASGTPGQRVTISCSGSSSNIGSNYVYWYQQLPGTAPKLLIYRNNQRPSGVPDRFSGSKSGTSASLAISGLRSEDEADYYCAAWDHHRSGAVFGGGTKLTVLGQAQPAAPAPNAHEAPAPAQGSEVQLVESGGGLVQPGGSLRLSCAASGFTFSSYWMSWVRQAPGKGLEWVANIKQDGSEKYYVDSVKGRFTISRDNAKNSLYLQMNSLRAEDTAVYYCARGYSAEFAHRSGLDVWGQGTLVTVSS
notes: Format as Bisslg_08_#1: aglycosylated human IgG1, AEASS Fc, knob-into-hole; also called CD3-MABGP in the bispecific 2+1 Fab2-Fc-scFv format; grandparent antibody CD3-MABGP
[6]
  EC50: 369 nM
[7]
  EC50: 248 nM
[8]
  RGA @ antibody conc. of 1 nM [S/BG] SKBR3 (Jurkat NFAT reporter gene assay): 1 S/BG
[9]
  Kd: 240 nM
[10]
  T cell binding @ antibody conc. of 167 nM [S/BG]: 1.4 S/BG

B4: BissIg_18_opt_cc# (bispecific antibody, human IgG1, kappa, lambda)
heavy 1: not shown
light 1: not shown
heavy 2: EVQLVESGGGLVQPGGSLRLSCAASGFSFGSHYMSWVRQAPGKGLEWVANINQIGYSSYYVESVKGRFTISRDNAKNSLYLQMNSLRAEDTAVYYCARGYSAEFAHRSGLDVWGQGTLVTVSSASTKGPSVFPLAPSSKSTSGGTAALGCLVKDYFPEPVTVSWNSGALTSGVHTFPAVLQSSGLYSLSSVVTVPSSSLGTQTYICNVNHKPSNTKVDKRVEPKSCDKTHTCPPCPAPEAEGAPSVFLFPPKPKDTLMISRTPEVTCVVVDVSHEDPEVKFNWYVDGVEVHNAKTKPREEQYNSTYRVVSVLTVLHQDWLNGKEYKCKVSNKALPSSIEKTISKAKGQPREPQVYTLPPSREEMTKNQVSLTCLVKGFYPSDIAVEWESNGQPENNYKTTPPVLDSDGSFLLYSKLTVDKSRWQQGNVFSCSVMHEALHNHYTQKSLSLSPGK
light 2: not shown
[1]
  T cell mediated killing MCF-7 [T cells] IC50 [pM]: < 10 pM and 13.2 pM
  T cell mediated killing SKBR3 [PBMCs] IC50 [pM]: 1.8 pM
[2]
  Reporter gene assay MCF-7 EC50: < 0.2 nM
  Reporter gene assay SKOV3 EC50: 0.07 nM
[3]
  Kd: 0.9 nM
[4]
  EC50: 7 nM
[5]
  koff: 0.0011 s⁻¹
  kon: 1.2e+06 M⁻¹ s⁻¹
